According to the supplement of paper PMC9112550, “Optimization of the antimicrobial peptide Bac7 by deep mutational scanning” (BMC Biology, 2022):

System: Escherichia coli TOP10
Assay: shrunken log2 fold change of peptide-encoding DNA abundance (4.5 h post-induction vs induction); higher = less antimicrobial activity (less host growth inhibition)
Details: time post-induction: 4.5 h; library: site-saturation at positions 5, 18, 19, 20
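Also: peptides expressed intracellularly from a pBAD plasmid library in pooled LB shake-flask culture, induced with 0.3% L-arabinose, DNA abundance read by NGS, three biological replicates, DESeq2 with apeglm shrinkage.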

| Sequence | shrunken log2 fold change |
| --- | --- |
| RRIRIRPPRLPRPRPRPLPEPRP | 0.0361 |
| RRIRIRPPRLPRPRPRPLPKPRP | 0.263 |
| RRIRIRPPRLPRPRPRPLPRPRP | 0.2 |
| RRIRIRPPRLPRPRPRPLPYPRP | -0.565 |
| RRIRIRPPRLPRPRPRPLQPPRP | 0.327 |
| RRIRIRPPRLPRPRPRPLSGPRP | -0.0874 |
| RRIRIRPPRLPRPRPRPLTIPRP | -0.536 |
| RRIRIRPPRLPRPRPRPLTMPRP | -0.181 |
| RRIRIRPPRLPRPRPRPLWHPRP | -0.105 |
| RRIRIRPPRLPRPRPRPLWYPRP | -0.551 |
| RRIRIRPPRLPRPRPRPLYTPRP | -0.723 |
| RRIRIRPPRLPRPRPRPMALPRP | -0.581 |
| RRIRIRPPRLPRPRPRPMCSPRP | -0.119 |
| RRIRIRPPRLPRPRPRPMECPRP | -0.153 |
| RRIRIRPPRLPRPRPRPMFFPRP | -0.534 |
| RRIRIRPPRLPRPRPRPMFPPRP | -0.724 |
| RRIRIRPPRLPRPRPRPMGIPRP | 0.000142 |
| RRIRIRPPRLPRPRPRPMGLPRP | -0.0686 |
| RRIRIRPPRLPRPRPRPMGQPRP | -0.077 |
| RRIRIRPPRLPRPRPRPMHVPRP | -0.00468 |
| RRIRIRPPRLPRPRPRPMIFPRP | -0.266 |
| RRIRIRPPRLPRPRPRPMIWPRP | -0.0224 |
| RRIRIRPPRLPRPRPRPMIYPRP | -0.205 |
| RRIRIRPPRLPRPRPRPMKAPRP | -1.03 |
| RRIRIRPPRLPRPRPRPMKCPRP | -0.0692 |

| Sequence | shrunken log2 fold change |
| --- | --- |
| RRIRIRPPRLPRPRPRPMKTPRP | -0.057 |
| RRIRIRPPRLPRPRPRPMLKPRP | -0.282 |
| RRIRIRPPRLPRPRPRPMLRPRP | -0.119 |
| RRIRIRPPRLPRPRPRPMLSPRP | -0.403 |
| RRIRIRPPRLPRPRPRPMLVPRP | 0.0625 |
| RRIRIRPPRLPRPRPRPMMCPRP | 0.0233 |
| RRIRIRPPRLPRPRPRPMMIPRP | -0.0366 |
| RRIRIRPPRLPRPRPRPMMWPRP | -0.00731 |
| RRIRIRPPRLPRPRPRPMNPPRP | -0.372 |
| RRIRIRPPRLPRPRPRPMPDPRP | 0.0702 |
| RRIRIRPPRLPRPRPRPMPIPRP | -0.0218 |
| RRIRIRPPRLPRPRPRPMRAPRP | 1.01 |
| RRIRIRPPRLPRPRPRPMRDPRP | 0.189 |
| RRIRIRPPRLPRPRPRPMRTPRP | 0.0509 |
| RRIRIRPPRLPRPRPRPMVEPRP | 3.19 |
| RRIRIRPPRLPRPRPRPMYIPRP | -0.0364 |
| RRIRIRPPRLPRPRPRPNAFPRP | -0.0665 |
| RRIRIRPPRLPRPRPRPNATPRP | -0.12 |
| RRIRIRPPRLPRPRPRPNCDPRP | -0.486 |
| RRIRIRPPRLPRPRPRPNCFPRP | 0.00306 |
| RRIRIRPPRLPRPRPRPNDHPRP | -0.569 |
| RRIRIRPPRLPRPRPRPNDMPRP | -1.13 |
| RRIRIRPPRLPRPRPRPNEDPRP | -0.488 |
| RRIRIRPPRLPRPRPRPNGNPRP | -0.365 |
| RRIRIRPPRLPRPRPRPNHHPRP | -0.868 |

| Sequence | shrunken log2 fold change |
| --- | --- |
| RRIRIRPPRLPRPRPRPNHLPRP | -0.844 |
| RRIRIRPPRLPRPRPRPNIDPRP | -0.619 |
| RRIRIRPPRLPRPRPRPNIVPRP | -0.665 |
| RRIRIRPPRLPRPRPRPNKSPRP | -0.919 |
| RRIRIRPPRLPRPRPRPNLCPRP | -0.0543 |
| RRIRIRPPRLPRPRPRPNLTPRP | 0.0979 |
| RRIRIRPPRLPRPRPRPNNFPRP | -0.388 |
| RRIRIRPPRLPRPRPRPNNKPRP | -0.85 |
| RRIRIRPPRLPRPRPRPNNYPRP | -0.996 |
| RRIRIRPPRLPRPRPRPNPGPRP | -0.209 |
| RRIRIRPPRLPRPRPRPNQEPRP | -0.177 |
| RRIRIRPPRLPRPRPRPNTNPRP | -0.905 |
| RRIRIRPPRLPRPRPRPNTWPRP | -0.406 |
| RRIRIRPPRLPRPRPRPNVFPRP | -0.27 |
| RRIRIRPPRLPRPRPRPPCGPRP | -0.239 |
| RRIRIRPPRLPRPRPRPPDFPRP | 0.189 |
| RRIRIRPPRLPRPRPRPPEFPRP | -0.0754 |
| RRIRIRPPRLPRPRPRPPEHPRP | -0.037 |
| RRIRIRPPRLPRPRPRPPENPRP | 0.0392 |
| RRIRIRPPRLPRPRPRPPFGPRP | 0.255 |
| RRIRIRPPRLPRPRPRPPGSPRP | 0.0671 |
| RRIRIRPPRLPRPRPRPPHVPRP | -0.265 |
| RRIRIRPPRLPRPRPRPPIPPRP | 0.00551 |
| RRIRIRPPRLPRPRPRPPLKPRP | -0.105 |
| RRIRIRPPRLPRPRPRPPNMPRP | -0.422 |
